Read-outs that look alike come from different tables or passages of the source.

Holding throughout (test): ITC
On the technique in general: ITC needs no label: the signal is the heat of the interaction.

For data set [1], the target named is T1, Dcr1 dsRBD R1322A (loop 4) (Schizosaccharomyces pombe, UniProt Q09884 1258-1358, R1322A).
T1 sequence: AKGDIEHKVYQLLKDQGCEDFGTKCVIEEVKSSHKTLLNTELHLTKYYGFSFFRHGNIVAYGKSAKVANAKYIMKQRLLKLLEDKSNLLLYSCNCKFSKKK

Data set [2] concerns the target T2, Dcr1 dsRBD K1265A (helix 1) (Schizosaccharomyces pombe, UniProt Q09884 1258-1358, K1265A).
T2 sequence: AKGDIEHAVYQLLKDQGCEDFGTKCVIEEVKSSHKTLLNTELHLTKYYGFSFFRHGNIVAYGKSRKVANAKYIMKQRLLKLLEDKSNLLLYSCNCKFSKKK

Data set [3] concerns the target T3, Dcr1 C-terminal extended dsRBD (Schizosaccharomyces pombe, UniProt Q09884 1258-1358).
T3 sequence: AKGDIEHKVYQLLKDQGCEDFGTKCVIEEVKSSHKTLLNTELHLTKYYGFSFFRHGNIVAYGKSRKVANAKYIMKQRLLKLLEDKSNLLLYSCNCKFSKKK

Data set [4] addresses T3, Dcr1 C-terminal extended dsRBD. This is another data set of the same source.

B1: dsRNA 24 bp (RNAfwd/RNArev) (dsRNA)
RNA 1: GGGAUCAAUAUGCUAAGCGAUCCC
RNA 2: GGGAUCGCUUAGCAUAUUGAUCCC
In the case of B1, the binding result in data set [1] and in data set [2] was “no binding” each time. Besides, the Kd (in general, the constant that tells how readily two partners part at equilibrium) in data set [3] worked out at 800 nM.

B2: dsDNA 24 bp (DNAfwd/DNArev) (dsDNA)
DNA 1: GGGATCAATATGCTAAGCGATCCC
DNA 2: GGGATCGCTTAGCATATTGATCCC
As to B2, the binding result in data set [1] and in data set [2] was “no binding” in each case. In data set [4], this molecule showed a Kd of 1500 nM.
